For assay [1], the target named is T1, GDF15-HIS(百普赛斯，CAT#:GD5-H5149) (human, UniProt Q99988 197-308).
T1 sequence (looked up): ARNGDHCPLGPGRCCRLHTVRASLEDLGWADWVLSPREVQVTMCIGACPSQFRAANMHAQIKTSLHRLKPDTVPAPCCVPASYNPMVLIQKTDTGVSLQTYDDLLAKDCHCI
Nature of the assay: cell-based or functional assay.

A further assay concerns the target T2, GDF3(R&D，5754-G3-010) (UniProt Q9NR23 251-364).
T2 sequence (looked up): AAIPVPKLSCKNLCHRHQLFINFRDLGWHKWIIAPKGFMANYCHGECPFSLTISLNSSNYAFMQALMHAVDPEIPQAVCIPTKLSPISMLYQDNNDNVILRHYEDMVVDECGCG
Nature of the assay: ELISA, GDF3 coated at 1 μg/ml, HRP-anti-human IgG. A general note: ELISA stands for enzyme-linked immunosorbent assay.

A further assay has as its target T3, GDF1(R&D，6937-GD-010) (UniProt P27539 254-372).
T3 sequence (looked up): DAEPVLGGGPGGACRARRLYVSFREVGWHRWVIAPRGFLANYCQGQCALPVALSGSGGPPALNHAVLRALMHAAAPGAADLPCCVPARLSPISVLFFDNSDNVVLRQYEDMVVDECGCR
As to the kind of experiment: ELISA, GDF1 coated at 1 μg/ml, HRP-anti-human IgG.

B1: AV380-hIgG1 (antibody)
heavy: not shown
light: DIQMTQSPASLSASVGETVTITCRTSENLHNYLAWYQQKQGKSPQLLVYDAKTLADGVPSRFSGSGSGTQYSLKINSLQPEDFGSYYCQHFWSSPYTFGGGTKLEIKRTVAAPSVFIFPPSDEQLKSGTASVVCLLNNFYPREAKVQWKVDNALQSGNSQESVTEQDSKDSTYSLSSTLTLSKADYEKHKVYACEVTHQGLSSPVTKSFNRGEC
For B1, in assay [1], the “Bottom (fold luciferase activity), HEK293 SRE-LUC2-cRET-GFRAL reporter cells” value came to 1.03 and the “IC50(μg/ml), luciferase in HEK293 SRE-LUC2-cRET-GFRAL reporter cells stimulated with 5 ng/ml GDF15-His” value was 0.0447 µg/mL.

B2: 53E5(hz) (antibody, human IgG1, kappa, V domains shown)
VH: QVQLQESGPGLVKPSETLSLTCTFSGFSLSTSGMGVGWIRQPPGKGLEWLAHILWDDVKRYNPALKSRLTISKDSSKSQISLKLSSVTAADTAVYYCVQMAWDWFAYWGQGTTVTVSS
VL: DIQMTQSPSSLSASVGDRVTITCKASQNVDTNVAWYQQKPGQSPKALIYSASYRSSGVPSRFSGSGSGTDFTLTISSLQPEDFATYYCQQYHSYPTFGQGTRLEIKR
notes: also called 人源化抗体53E5(hz); 53E5人源化
Turning to B2, in assay [1], the “Bottom (fold luciferase activity), HEK293 SRE-LUC2-cRET-GFRAL reporter cells” value was 1.1 and the “IC50(μg/ml), luciferase in HEK293 SRE-LUC2-cRET-GFRAL reporter cells stimulated with 5 ng/ml GDF15-His” value came out at 0.0225 µg/mL. Moreover, in the assay with GDF3(R&D，5754-G3-010), the binding result was “no binding (tested: 4μg/ml)”. Besides, the binding result with GDF1(R&D，6937-GD-010) is given as “no binding (tested: 4μg/ml)”.

Source of the values: patent CN116535503A (KANGYUAN BOCHUANG BIOLOGICAL TECH BEIJING CO LTD, dated 2023).
